Assay results: patent US20220389118A1 (Chugai, published 2022)
Positions count from the first letter of the chain named. Names may count otherwise. Where two headings read alike, the source gives them in different places. Values belong to the binder of their own block, whether it stands above or below them.

Assays:
[1] = target: T1, human FcγRIIa type R extracellular domain with C-terminal His tag (human, UniProt P12318 34-217); assay: SPR (Biacore)
T1 construct: extracellular domain; also called FcγRIIaR; FcgRIIaR
T1 sequence (looked up): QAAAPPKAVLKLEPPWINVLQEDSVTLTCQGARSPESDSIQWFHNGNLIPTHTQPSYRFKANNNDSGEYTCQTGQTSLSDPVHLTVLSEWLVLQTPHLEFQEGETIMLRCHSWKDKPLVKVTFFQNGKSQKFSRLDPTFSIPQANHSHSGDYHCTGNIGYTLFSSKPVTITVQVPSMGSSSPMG

[2] = target: T2, human FcγRIIIa type V extracellular domain with C-terminal His tag (human, UniProt P08637 17-208); assay: SPR (Biacore)
T2 construct: extracellular domain; also called FcγRIIIaV; FcgRIIIaV
T2 sequence (P08637 17-208 F176V): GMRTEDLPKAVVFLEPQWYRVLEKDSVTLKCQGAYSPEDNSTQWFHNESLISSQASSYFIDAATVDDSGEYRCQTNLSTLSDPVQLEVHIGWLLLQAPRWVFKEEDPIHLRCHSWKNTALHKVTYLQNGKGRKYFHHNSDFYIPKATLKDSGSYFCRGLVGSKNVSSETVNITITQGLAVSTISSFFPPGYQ

[3] = target: T3, human FcγRIa extracellular domain with C-terminal His tag (human, UniProt P12314 16-292); assay: SPR (Biacore)
T3 construct: extracellular domain; also called FcgRIa
T3 sequence (P12314 16-292): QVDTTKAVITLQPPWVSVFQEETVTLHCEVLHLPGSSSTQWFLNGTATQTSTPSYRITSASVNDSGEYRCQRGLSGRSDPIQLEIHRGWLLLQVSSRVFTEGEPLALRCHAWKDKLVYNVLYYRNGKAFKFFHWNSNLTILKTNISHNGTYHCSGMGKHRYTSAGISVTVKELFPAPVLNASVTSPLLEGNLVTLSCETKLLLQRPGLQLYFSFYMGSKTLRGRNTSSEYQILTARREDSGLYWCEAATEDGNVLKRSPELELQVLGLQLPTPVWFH

[4] = target: T4, human FcγRIIb extracellular domain with C-terminal His tag (human, UniProt P31994 43-217); assay: SPR (Biacore), antibody captured, FcγR analyte
T4 construct: extracellular domain; not shown: His tag at the C terminus
T4 sequence (looked up): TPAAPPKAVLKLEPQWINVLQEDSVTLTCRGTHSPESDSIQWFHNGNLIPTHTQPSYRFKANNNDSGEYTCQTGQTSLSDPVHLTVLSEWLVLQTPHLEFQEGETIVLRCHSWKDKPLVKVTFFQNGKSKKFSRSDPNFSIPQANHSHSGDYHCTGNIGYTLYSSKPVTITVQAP

[5] = target: T5, human FcγRIIa type R (R131) extracellular domain with C-terminal His tag (human, UniProt P12318 34-217); assay: SPR (Biacore), antibody captured, FcγR analyte
T5 construct: extracellular domain; also called FcγRIIaR; not shown: His tag at the C terminus
T5 sequence (looked up): T1 sequence (looked up)

[6] = target: T6, human FcγRIa extracellular domain with C-terminal His tag (human, UniProt P12314 16-292); assay: SPR (Biacore), antibody captured, FcγR as analyte
T6 construct: also called FcgRIa
T6 sequence (P12314 16-292): as the sequence (P12314 16-292) above

[7] = target: T7, human FcγRIIa type R extracellular domain with C-terminal His tag (human, UniProt P12318 34-217); assay: SPR (Biacore), antibody captured, FcγR as analyte
T7 construct: extracellular domain; also called FcγRIIaR; FcgRIIaR
T7 sequence (looked up): T1 sequence (looked up)

[8] = target: T8, human FcγRIIb extracellular domain with C-terminal His tag (human, UniProt P31994 43-217); assay: SPR (Biacore), antibody captured, FcγR as analyte
T8 construct: extracellular domain; also called FcgRIIb
T8 sequence (looked up): T4 sequence (looked up)

[9] = target: T9, human FcγRIIa type R extracellular domain with C-terminal His tag (human, UniProt P12318 34-217); assay: SPR, Ref. Ex. 25
T9 construct: extracellular domain; also called FcγRIIaR; FcγRIIa R
T9 sequence (looked up): T1 sequence (looked up)

[10] = target: T10, human FcγRIIb extracellular domain with C-terminal His tag (human, UniProt P31994 43-217); assay: SPR, Ref. Ex. 25
T10 construct: extracellular domain; for crystals expressed with kifunensine and trimmed with Endo F1; also called FcγRIIb extracellular region
T10 sequence (looked up): T4 sequence (looked up)

[11] = target: T11, human FcγRIIIa type V extracellular domain with C-terminal His tag (human, UniProt P08637 17-208); assay: SPR, Ref. Ex. 25
T11 construct: extracellular domain; also called FcγRIIIaV; FcγRIIIa V type
T11 sequence (P08637 17-208 F176V): as the sequence (P08637 17-208 F176V) above

[12] = target: T12, human FcγRIIb extracellular domain with C-terminal His tag (human, UniProt P31994 43-217); assay: SPR (Biacore)
T12 construct: extracellular domain; also called FcgRIIb
T12 sequence (looked up): T4 sequence (looked up)

[13] = target: T5, human FcγRIIa type R (R131) …; assay: SPR (Biacore), antibody captured, FcγR analyte; remark: listed apart in the source
[14] = target: T13, human FcγRIIIa type V (allotype V158) extracellular domain with C-terminal His tag (human, UniProt P08637 17-208); assay: SPR (Biacore), antibody captured, FcγR analyte
T13 construct: extracellular domain; also called FcγRIIIaV; FcγRIIIa V type; not shown: His tag at the C terminus
T13 sequence (P08637 17-208 F176V): as above

Kd [1]: 5000 nM
Kd [2]: 50000 nM
B1: IL6R-2B253/IL6R-L (antibody, human IgG1, kappa)
heavy: QVQLQESGPGLVKPSETLSLTCAVSGHSISHDHAWSWVRQPPGEGLEWIGFISYSGITNYNPSLQGRVTISRDNSKNTLYLQMNSLRAEDTAVYYCARSLARTTAMDYWGEGTLVTVSSASTKGPSVFPLAPSSKSTSGGTAALGCLVKDYFPEPVTVSWNSGALTSGVHTFPAVLQSSGLYSLSSVVTVPSSSLGTQTYICNVNHKPSNTKVDKKVEPKSCDKTHTCPPCPAPDLLGGDSVFLFPPKPKDTLMISRTPEVTCVVVDVSHEDPEVKFNWYVDGVEVHNAKTKPREEQYNSTYRVVSVLTVLHQDWLNGKEYKCKMSNKALPAPIEKTISKAKGQPREPQVYTLPPSRDELTKNQVSLTCLVKGFYPSDIAVEWESNGQPENNYKTTPPVLDSDGSFFLYSKLTVDKSRWQQGNVFSCSVMHEALHNHYTQESLSLSP
light: not shown
notes: EU numbering; alterations on IL6R-B3; copies: 2 + 2

Kd [3]: 98 nM
Kd [2]: 70000 nM
B2: IL6R-BP180/IL6R-L (antibody, human IgG1, kappa)
heavy: B1 heavy with D235E, G239D, P273G, M325V, A332K
light: not shown
notes: EU numbering; alterations on IL6R-B3; also called IL6R-BF180/IL6R-L; copies: 2 + 2

Kd [4]: 40 nM
B3: IL6R-BP228/IL6R-L (antibody, human IgG1, kappa)
heavy: B1 heavy with D235E, L236Y, G239D, S269Q, H270D, P273G, M325V, K328D, A332R
light: not shown
notes: copies: 2 + 2

Kd [5]: 3000 nM
B4: IL6R-BP520/IL6R-L (antibody, human IgG1, kappa)
heavy: B1 heavy with G239D, H270E, P273G, E274M, M325V
light: not shown
notes: E272M introduced into IL6R-BP267; copies: 2 + 2

Kd [6]: 7 nM
Kd [7]: 9900 nM
KD(IIb) of parent polypeptide/KD(IIb) of altered polypeptide [8]: 2.7 fold vs IL6R-B3/IL6R-L
B5: IL6R-BP119/IL6R-L (antibody, human IgG1, kappa)
heavy: B1 heavy with D235E, M325V, K328M
light: not shown
notes: IgG1 type

Kd [1]: 4200 nM
Kd [2]: 68000 nM
B6: IL6R-BP085/IL6R-L (antibody, human IgG1, kappa)
heavy: B1 heavy with D235E, G239D, M325V, A332K
light: not shown
notes: as for B1

Kd [9]: 32000 nM
Kd [10]: 3000 nM
Kd [11]: 37000 nM
B7: IL6R-PD079/IL6R-L (antibody, human IgG1, kappa)
heavy: B1 heavy with D235E, G239A, M254Y, M325V, N436Y, E441K
light: not shown
notes: also called P238D/G237A; G237A/P238D; copies: 2 + 2

Kd [3]: 7 nM
Kd [12]: 500 nM
B8: IL6R-BP084/IL6R-L (antibody, human IgG1, kappa)
heavy: B1 heavy with D235E, A332K
light: not shown
notes: as for B1

Kd [13]: 3000 nM
B9: IL6R-BP474/IL6R-L (antibody, human IgG1, kappa)
heavy: B1 heavy with G239D, H270D, P273G, Y298D, M325V, A332S, P333S
light: not shown
notes: A330S and P331S introduced into IL6R-BP230; copies: 2 + 2

Kd [9]: 21000 nM
Kd [10]: 2000 nM
Kd [11]: 43000 nM
B10: IL6R-PD080/IL6R-L (antibody, human IgG1, kappa)
heavy: B1 heavy with D235E, G239D, M254Y, M325V, N436Y, E441K
light: not shown
notes: also called P238D/G237D; G237D/P238D; copies: 2 + 2

Kd [5]: 3000 nM
B11: IL6R-BP514/IL6R-L (antibody, human IgG1, kappa)
heavy: B1 heavy with G239D, H270E, P273G, E274F, M325V
light: not shown
notes: E272F introduced into IL6R-BP267; copies: 2 + 2

Kd [13]: 1000 nM
B12: IL6R-BP475/IL6R-L (antibody, human IgG1, kappa)
heavy: B1 heavy with G239D, H270D, P273G, Y298D, M325V, A329G, A332S
light: not shown
notes: A327G and A330S introduced into IL6R-BP230; copies: 2 + 2

Kd [6]: 4 nM
Kd [7]: 11000 nM
KD(IIb) of parent polypeptide/KD(IIb) of altered polypeptide [8]: 3.3 fold vs IL6R-B3/IL6R-L
B13: IL6R-BP106/IL6R-L (antibody, human IgG1, kappa)
heavy: B1 heavy with D235E, H270D, M325V
light: not shown
notes: IgG1 type

Kd [4]: 100 nM
B14: IL6R-BP237/IL6R-L (antibody, human IgG1, kappa)
heavy: B1 heavy with L236Y, G239D, S269Q, H270D, P273G, Y298D, M325V, K328A, A332K
light: not shown
notes: copies: 2 + 2

Kd [14]: 40000 nM
B15: IL6R-BP231/IL6R-L (antibody, human IgG1, kappa)
heavy: B1 heavy with D235E, G239D, H270D, P273G, Y298D, M325V, A332R
light: not shown
notes: copies: 2 + 2
